According to publication PMC7190841 (Scientific Reports, 2020):

What was measured:
P-IR(Tyr1158) = target: T1, P-IR(Tyr1158) (Homo sapiens, UniProt P06213); test: Activation of IR in L6hIR cells in vitro, sandwich ELISA; format: cell-based; conditions: ligands 0-1000 nM for 30 min, 0.1% human serum albumin, three replicates
T1 construct: expressed in transfected cells; host or cells: rat L6 myoblast cells (L6hIR, generated at Novo Nordisk)
Experimental: L6hIR cells were seeded in 12-well plates and grown until 90–100% confluence in DMEM (Gibco, Invitrogen, Carlsbad, CA, USA). Cells were stimulated with increasing concentrations of ligands (0–1000 nM) for 30 min in DMEM (Gibco) medium containing 0.1% human serum albumin. Subsequently, cells were washed three times in ice-cold phosphate buffered saline (PBS) and snap-frozen by pouring liquid nitrogen into the wells. Cells were lysed in 100 µL lysis buffer (cell extraction buffer from BioSource, Invitrogen, Carlsbad, CA, USA; supplemented with 1 mmol/l 4-(2-aminoethyl)benzenesulfonyl fluoride hydrochloride, and protease inhibitor cocktail from Sigma-Aldrich).
(§1) Fitting of dose-response curves describing thymidine-incorporation in vitro and activation of IR and IGF-1R, including calculation of EC50 values, were conducted with GraphPad Prism (GraphPad Software Inc., La Jolla, CA, USA).

L6hIR cells = test: Mitogenic potency from thymidine-incorporation in L6hIR cells; format: cell-based, rat; conditions: weighted mean [95% CI], at least three independent experiments
Experimental: as §1
(§2) H4IIE cells (ATCC, Manassas, VA, USA) were cultured in minimum essential medium (MEM) (Gibco) supplemented with 10% (v/v) FBS, 100 µg/ml penicillin and 100 U/ml streptomycin, 1% (v/v) MEM non-essential amino acids and 1% (v/v) pyruvate (all from Gibco).

[1] = Lowering of blood glucose in mice with L6hIR xenografts; format: in vivo, mouse; conditions: 300 or 600 nmol/kg s.c., experiment D
Experimental: Blood glucose and plasma concentrations of test compounds and endogenous mouse insulin were assessed as described previously[10].

[2] = test system: IR and IGF-1R in L6hIR xenografts; test: Acute activation of IR and IGF-1R in L6hIR xenografts in vivo; parameters: species or system mouse; conditions: experiment A; 300 nmol/kg s.c., single treatment, euthanized 20 min later; n = 7-8
Experimental: Male BALB/c nude mice (CAnN.Cg-Foxn1 nu/Crl) were purchased from Charles River (Charles River Laboratories Germany, Sulzfeld, Germany) at age of seven weeks and housed five mice per cage in individually ventilated Techniplast GR 900 Seal Safe Plus cages, with unrestricted access to a complete pelleted rodent diet (Altromin 1324, Brogården, Hørsholm, Denmark) and tap water (non-chlorinated, non-acidified). In the animal room the temperature was 18–24 °C, with relative humidity at 30–70%, air change 8–15 times/h and a light-dark cycle of 12/12 h. All mice were acclimatized for 10 days before experiments were started. On day 0, all mice were injected s.c. in the right flank with 2.5 million L6hIR (six experiments) or L6 cells (one experiment), suspended in 0.1 ml PBS. On the same day treatment with vehicle or test compounds was started and continued either once or twice daily until the end of the experiment (Supplementary Table S5). […]
L6hIR cell xenograft samples were lysed in cell extraction buffer as described previously[10]. Protein concentration of cell and xenograft lysates was assessed with Pierce BCA protein assay kit (Thermo Fisher Scientific, Hvidovre, Denmark), according to the manufacturer’s instructions.

[3] = Pharmacokinetics after s.c. injection in mice; format: in vivo; conditions: mouse; for t1/2 / Cmax: mean [95% CI]; for t1/2 / tmax / Cmax: n = 15; for tmax: median; for Cmax: sparse sampling 0-240 min, population PK and non-compartment analysis
Experimental: Pharmacokinetic (PK) parameters were estimated from the two experiments with sparse sampling (three blood samples per mouse) for 0–240 min. Initially, population PK models[25] for each compound was developed in Nonmem (Icon, Dublin, Ireland) and approximately 60 individual post-hoc concentration-time data points per mouse was subjected to non-compartment analysis.

H4IIE cells = test: Mitogenic potency from thymidine-incorporation in H4IIE cells; format: cell-based, rat; conditions: weighted mean [95% CI], at least three independent experiments
Experimental: as §1, §2

[4] = s.c., range over doses of 300 and 600 nmol/kg of HI and IX10

T1 sequence (P06213 28-1370 isoform P06213-2 limits assumed): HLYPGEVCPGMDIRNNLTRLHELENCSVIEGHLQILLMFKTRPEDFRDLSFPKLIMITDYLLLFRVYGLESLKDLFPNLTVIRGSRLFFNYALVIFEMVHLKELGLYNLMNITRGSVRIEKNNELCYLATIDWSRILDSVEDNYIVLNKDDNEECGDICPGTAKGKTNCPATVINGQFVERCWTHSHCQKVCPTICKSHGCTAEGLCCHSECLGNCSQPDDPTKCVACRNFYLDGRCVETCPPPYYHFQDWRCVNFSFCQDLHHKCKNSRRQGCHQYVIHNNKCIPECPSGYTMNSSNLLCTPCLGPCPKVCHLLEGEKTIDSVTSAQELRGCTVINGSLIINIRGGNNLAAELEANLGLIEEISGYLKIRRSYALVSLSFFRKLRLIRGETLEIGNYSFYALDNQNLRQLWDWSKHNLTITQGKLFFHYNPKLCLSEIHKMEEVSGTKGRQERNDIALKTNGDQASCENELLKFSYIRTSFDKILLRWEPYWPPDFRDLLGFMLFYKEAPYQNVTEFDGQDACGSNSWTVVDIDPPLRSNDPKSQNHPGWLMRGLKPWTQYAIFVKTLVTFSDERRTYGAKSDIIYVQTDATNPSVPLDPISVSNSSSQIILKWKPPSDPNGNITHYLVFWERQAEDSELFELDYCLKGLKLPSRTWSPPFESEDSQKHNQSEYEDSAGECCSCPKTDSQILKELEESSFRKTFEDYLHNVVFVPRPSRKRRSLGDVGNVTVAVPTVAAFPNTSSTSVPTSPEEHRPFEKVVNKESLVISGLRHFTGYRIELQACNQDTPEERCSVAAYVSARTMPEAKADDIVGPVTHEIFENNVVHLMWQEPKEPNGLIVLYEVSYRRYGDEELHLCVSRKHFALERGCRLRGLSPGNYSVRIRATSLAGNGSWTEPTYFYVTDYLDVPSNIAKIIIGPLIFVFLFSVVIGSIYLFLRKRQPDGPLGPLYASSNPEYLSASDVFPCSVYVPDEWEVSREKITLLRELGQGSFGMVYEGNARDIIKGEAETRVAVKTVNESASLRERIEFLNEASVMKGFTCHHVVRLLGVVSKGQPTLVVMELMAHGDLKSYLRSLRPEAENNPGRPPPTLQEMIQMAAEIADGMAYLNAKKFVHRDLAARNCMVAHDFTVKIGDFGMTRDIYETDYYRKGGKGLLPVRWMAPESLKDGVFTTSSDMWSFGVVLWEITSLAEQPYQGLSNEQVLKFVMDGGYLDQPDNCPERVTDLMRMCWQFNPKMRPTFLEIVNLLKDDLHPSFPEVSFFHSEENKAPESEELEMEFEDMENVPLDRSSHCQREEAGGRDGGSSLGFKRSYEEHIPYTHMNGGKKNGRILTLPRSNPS
T1 sequence (P06213 763-1382 partner limits assumed): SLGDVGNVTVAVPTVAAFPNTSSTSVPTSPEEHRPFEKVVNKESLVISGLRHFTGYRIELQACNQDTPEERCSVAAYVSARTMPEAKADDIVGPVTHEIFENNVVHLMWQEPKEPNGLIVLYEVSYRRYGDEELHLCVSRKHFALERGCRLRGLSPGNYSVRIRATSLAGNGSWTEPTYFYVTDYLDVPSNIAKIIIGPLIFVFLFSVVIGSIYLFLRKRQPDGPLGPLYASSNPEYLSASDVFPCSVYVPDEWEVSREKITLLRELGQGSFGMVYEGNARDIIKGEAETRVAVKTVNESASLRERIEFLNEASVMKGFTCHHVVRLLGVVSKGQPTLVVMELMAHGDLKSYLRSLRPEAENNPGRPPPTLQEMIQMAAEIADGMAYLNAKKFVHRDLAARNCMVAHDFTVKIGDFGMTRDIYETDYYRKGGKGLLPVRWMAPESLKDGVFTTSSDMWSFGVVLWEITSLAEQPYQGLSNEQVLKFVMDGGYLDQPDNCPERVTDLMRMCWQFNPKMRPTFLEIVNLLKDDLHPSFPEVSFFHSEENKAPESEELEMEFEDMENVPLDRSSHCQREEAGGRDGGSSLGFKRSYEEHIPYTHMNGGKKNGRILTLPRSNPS

Row | EC50 (P-IR(Tyr1158)) | Substance | mitogenic potency L6hIR cells (% of HI) (L6hIR cells) | Duration of decreased blood glucose [1] | Activation of IR and IGF-1R in L6hIR xenografts in vivo [2] | t1/2 ([3]; 300 nmol/kg s.c., experiment H) | tmax ([3]; 300 nmol/kg s.c., experiment H) | Cmax ([3]; 300 nmol/kg s.c., experiment H) | t1/2 ([3]; 600 nmol/kg s.c., experiment I) | tmax ([3]; 600 nmol/kg s.c., experiment I) | Cmax ([3]; 600 nmol/kg s.c., experiment I) | elimination half-life [3, 4] | maximum plasma concentration [3, 4] | time of maximum plasma concentration after s.c. injection [3, 4] | mitogenic potency H4IIE cells (% of HI) (H4IIE cells)
1 | 25.8 nM | IGF-1: human IGF-1, reference ligand in receptor activation assays | – | – | – | – | – | – | – | – | – | – | – | – | –
2 | – | human insulin [HI] | 100 % of HI | 4 to 6 h | acute activation of IR and IGF-1R | 96 [85 ; 107] min | 11 min | 725.7 [654.0 ; 797.4] nmol/l | 52 [48 ; 56] min | 17 min | 812.5 [761.7 ; 863.4] nmol/l | 60 to 90 min | 500 to 850 nmol/L | 11 to 17 min | 100 % of HI
